Changes are numbered by the printed parent chain. Numbers in names are those of the source. Each block holds one binder with its values, some of them ahead of it.
Target: Human CD137 ECD (human)
Test: SPR, vs parent H183/L072

Sequence of Human CD137 ECD (human) (chain, as listed by the source limits assumed): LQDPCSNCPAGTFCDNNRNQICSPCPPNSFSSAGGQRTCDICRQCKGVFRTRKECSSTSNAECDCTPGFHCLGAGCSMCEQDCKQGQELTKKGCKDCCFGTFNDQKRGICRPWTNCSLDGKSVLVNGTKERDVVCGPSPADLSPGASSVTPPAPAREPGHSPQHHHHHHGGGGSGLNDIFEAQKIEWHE

B1: dBBDu183H V95R / dBBDu072L (antibody, name in Kabat numbering, V domains shown)
VH: QVQLVESGGGLVQPGRSLRLSCAASGFTFSNAWMHWVRQAPGKGLEWVAQIKDKGNAYAAYYAPSVKGRFTISRDDSKNSIYLQMNSLKTEDTAVYYCHYRHYASASTVLPAFGVDAWGQGTTVTVSS
VL: DIVMTQSPLSLPVTPGEPASISCQASQELVHMNRNTYLHWYQQKPGQAPRLLIYKVSNRFPGVPDRFSGSGSGTDFTLKISRVEAEDVGVYYCAQGTSVPFTFGQGTKLEIK
- fold change of affinity: 0 fold

B2: dBBDu183H P100eF / dBBDu072L (antibody, name in Kabat numbering, V domains shown)
VH: B1 VH with R101V, P111F
VL: B1 VL
- fold change of affinity: 0 fold

B4: dBBDu183H T100bW / dBBDu072L (antibody, name in Kabat numbering, V domains shown)
VH: B1 VH with R101V, T108W
VL: B1 VL
- fold change of affinity: 0 fold

B6: dBBDu183H P100eW / dBBDu072L (antibody, name in Kabat numbering, V domains shown)
VH: B1 VH with R101V, P111W
VL: B1 VL
- fold change of affinity: 0 fold

B7: dBBDu183H H93F / dBBDu072L (antibody, name in Kabat numbering, V domains shown)
VH: B1 VH with H99F, R101V
VL: B1 VL
- fold change of affinity: 0 fold

B11: dBBDu183H V95Y / dBBDu072L (antibody, name in Kabat numbering, V domains shown)
VH: B1 VH with R101Y
VL: B1 VL
- fold change of affinity: 0 fold

B13: dBBDu183H T100bF / dBBDu072L (antibody, name in Kabat numbering, V domains shown)
VH: B1 VH with R101V, T108F
VL: B1 VL
- fold change of affinity: 0 fold

B14: dBBDu183H H93Y / dBBDu072L (antibody, name in Kabat numbering, V domains shown)
VH: B1 VH with H99Y, R101V
VL: B1 VL
- fold change of affinity: 0 fold

B16: dBBDu183H A98W / dBBDu072L (antibody, name in Kabat numbering, V domains shown)
VH: B1 VH with R101V, A104W
VL: B1 VL
- fold change of affinity: 0 fold

B18: dBBDu183H S100aR / dBBDu072L (antibody, name in Kabat numbering, V domains shown)
VH: B1 VH with R101V, S107R
VL: B1 VL
- fold change of affinity: 0 fold

B20: dBBDu183H V63Y / dBBDu072L (antibody, name in Kabat numbering, V domains shown)
VH: B1 VH with V66Y, R101V
VL: B1 VL
- fold change of affinity: 0 fold

B21: dBBDu183H A98R / dBBDu072L (antibody, name in Kabat numbering, V domains shown)
VH: B1 VH with R101V, A104R
VL: B1 VL
- fold change of affinity: 0 fold

B26: dBBDu183H L100dR / dBBDu072L (antibody, name in Kabat numbering, V domains shown)
VH: B1 VH with R101V, L110R
VL: B1 VL
- fold change of affinity: 0 fold

B27: dBBDu183H F100gR / dBBDu072L (antibody, name in Kabat numbering, V domains shown)
VH: B1 VH with R101V, F113R
VL: B1 VL
- fold change of affinity: 0 fold

B29: dBBDu183H D101W / dBBDu072L (antibody, name in Kabat numbering, V domains shown)
VH: B1 VH with R101V, D116W
VL: B1 VL
- fold change of affinity: 0 fold

B34: dBBDu183H V95W / dBBDu072L (antibody, name in Kabat numbering, V domains shown)
VH: B1 VH with R101W
VL: B1 VL
- fold change of affinity: 0 fold

B37: dBBDu183H S99W / dBBDu072L (antibody, name in Kabat numbering, V domains shown)
VH: B1 VH with R101V, S105W
VL: B1 VL
- fold change of affinity: 0 fold

B40: dBBDu183H V95F / dBBDu072L (antibody, name in Kabat numbering, V domains shown)
VH: B1 VH with R101F
VL: B1 VL
- fold change of affinity: 0 fold

B43: dBBDu183H V100iR / dBBDu072L (antibody, name in Kabat numbering, V domains shown)
VH: B1 VH with R101V, V115R
VL: B1 VL
- fold change of affinity: 0 fold

B47: dBBDu183H A102R / dBBDu072L (antibody, name in Kabat numbering, V domains shown)
VH: B1 VH with R101V, A117R
VL: B1 VL
- fold change of affinity: 0 fold

Second part, the binder after the results:

- fold change of affinity: 0 fold
B3: dBBDu183H A102F / dBBDu072L (antibody, name in Kabat numbering, V domains shown)
VH: B1 VH with R101V, A117F
VL: B1 VL

- fold change of affinity: 0 fold
B5: dBBDu183H A100W / dBBDu072L (antibody, name in Kabat numbering, V domains shown)
VH: B1 VH with R101V, A106W
VL: B1 VL

- fold change of affinity: 0 fold
B8: dBBDu183H A98F / dBBDu072L (antibody, name in Kabat numbering, V domains shown)
VH: B1 VH with R101V, A104F
VL: B1 VL

- fold change of affinity: 0 fold
B9: dBBDu183H Y94W / dBBDu072L (antibody, name in Kabat numbering, V domains shown)
VH: B1 VH with Y100W, R101V
VL: B1 VL

- fold change of affinity: 0 fold
B10: dBBDu183H G100hR / dBBDu072L (antibody, name in Kabat numbering, V domains shown)
VH: B1 VH with R101V, G114R
VL: B1 VL

- fold change of affinity: 0 fold
B12: dBBDu183H L100dF / dBBDu072L (antibody, name in Kabat numbering, V domains shown)
VH: B1 VH with R101V, L110F
VL: B1 VL

- fold change of affinity: 0 fold
B15: dBBDu183H A100fR / dBBDu072L (antibody, name in Kabat numbering, V domains shown)
VH: B1 VH with R101V, A112R
VL: B1 VL

- fold change of affinity: 0 fold
B17: dBBDu183H A100Y / dBBDu072L (antibody, name in Kabat numbering, V domains shown)
VH: B1 VH with R101V, A106Y
VL: B1 VL

- fold change of affinity: 0 fold
B19: dBBDu183H S100aW / dBBDu072L (antibody, name in Kabat numbering, V domains shown)
VH: B1 VH with R101V, S107W
VL: B1 VL

- fold change of affinity: 0 fold
B22: dBBDu183H H93W / dBBDu072L (antibody, name in Kabat numbering, V domains shown)
VH: B1 VH with H99W, R101V
VL: B1 VL

- fold change of affinity: 0 fold
B23: dBBDu183H H96R / dBBDu072L (antibody, name in Kabat numbering, V domains shown)
VH: B1 VH with R101V, H102R
VL: B1 VL

- fold change of affinity: 0 fold
B24: dBBDu183H D101R / dBBDu072L (antibody, name in Kabat numbering, V domains shown)
VH: B1 VH with R101V, D116R
VL: B1 VL

- fold change of affinity: 0 fold
B25: dBBDu183H A98Y / dBBDu072L (antibody, name in Kabat numbering, V domains shown)
VH: B1 VH with R101V, A104Y
VL: B1 VL

- fold change of affinity: 0 fold
B28: dBBDu183H A100F / dBBDu072L (antibody, name in Kabat numbering, V domains shown)
VH: B1 VH with R101V, A106F
VL: B1 VL

- fold change of affinity: 0 fold
B30: dBBDu183H V100cF / dBBDu072L (antibody, name in Kabat numbering, V domains shown)
VH: B1 VH with R101V, V109F
VL: B1 VL

- fold change of affinity: 0 fold
B31: dBBDu183H A100fF / dBBDu072L (antibody, name in Kabat numbering, V domains shown)
VH: B1 VH with R101V, A112F
VL: B1 VL

- fold change of affinity: 0 fold
B32: dBBDu183H V100iW / dBBDu072L (antibody, name in Kabat numbering, V domains shown)
VH: B1 VH with R101V, V115W
VL: B1 VL

- fold change of affinity: 0 fold
B33: dBBDu183H G100hF / dBBDu072L (antibody, name in Kabat numbering, V domains shown)
VH: B1 VH with R101V, G114F
VL: B1 VL

- fold change of affinity: 0 fold
B35: dBBDu183H D101F / dBBDu072L (antibody, name in Kabat numbering, V domains shown)
VH: B1 VH with R101V, D116F
VL: B1 VL

- fold change of affinity: 0 fold
B36: dBBDu183H T100bR / dBBDu072L (antibody, name in Kabat numbering, V domains shown)
VH: B1 VH with R101V, T108R
VL: B1 VL

- fold change of affinity: 0 fold
B38: dBBDu183H A102W / dBBDu072L (antibody, name in Kabat numbering, V domains shown)
VH: B1 VH with R101V, A117W
VL: B1 VL

- fold change of affinity: 0 fold
B39: dBBDu183H S99F / dBBDu072L (antibody, name in Kabat numbering, V domains shown)
VH: B1 VH with R101V, S105F
VL: B1 VL

- fold change of affinity: 0 fold
B41: dBBDu183H A100fW / dBBDu072L (antibody, name in Kabat numbering, V domains shown)
VH: B1 VH with R101V, A112W
VL: B1 VL

- fold change of affinity: 0 fold
B42: dBBDu183H G100hW / dBBDu072L (antibody, name in Kabat numbering, V domains shown)
VH: B1 VH with R101V, G114W
VL: B1 VL

- fold change of affinity: 0 fold
B44: dBBDu183H V100iF / dBBDu072L (antibody, name in Kabat numbering, V domains shown)
VH: B1 VH with R101V, V115F
VL: B1 VL

- fold change of affinity: 0 fold
B45: dBBDu183H S100aF / dBBDu072L (antibody, name in Kabat numbering, V domains shown)
VH: B1 VH with R101V, S107F
VL: B1 VL

- fold change of affinity: 0 fold
B46: dBBDu183H Y97R / dBBDu072L (antibody, name in Kabat numbering, V domains shown)
VH: B1 VH with R101V, Y103R
VL: B1 VL
